The results in this text go back to publication PMC7472637.

What all share (assay): in vivo oligomerization (SDS-PAGE of cell lysates ± DTT, anti-FLAG Western blot)
(A western blot detects proteins with antibodies after separation by electrophoresis.)

Experiment [1] addresses HapR-R37E, C-terminal FLAG-tagged (Vibrio cholerae).
In experiment [2] the target is HapR-R37D, C-terminal FLAG-tagged (Vibrio cholerae).
Experiment [3] concerns the target HapR, wild type, C-terminal FLAG-tagged (Vibrio cholerae).
Experiment [4] addresses HapR-R37H, C-terminal FLAG-tagged (Vibrio cholerae).
For experiment [5], the target named is HapR-R37A, C-terminal FLAG-tagged (Vibrio cholerae).

One may read the stoichiometry N as the number of molecules, sites or subunits per partner or assembly.

As to “HapR-R37E, C-terminal FLAG-tagged (natural protein)”, the stoichiometry N in experiment [1] turned out to be 2.
“HapR-R37D, C-terminal FLAG-tagged (natural protein)” registered a stoichiometry N in experiment [2] of 2.
As to “HapR, wild type, C-terminal FLAG-tagged (natural protein)”, in experiment [3], the stoichiometry N stood at 2.
With “HapR-R37H, C-terminal FLAG-tagged (natural protein)”, the stoichiometry N in experiment [4] came to 2.
In experiment [5], “HapR-R37A, C-terminal FLAG-tagged (natural protein)” came in with a stoichiometry N of 2.
